Test results published in paper PMC5035961.

Key:
[1] = biological target: Influenza A nucleoprotein (strain A/WSN/1933, H1N1) (influenza A virus, H1N1 strain A/WSN/1933) (UniProt P15682); assay: negative stain electron microscopy
[2] = biological target: Influenza A nucleoprotein (strain A/WSN/1933, H1N1) (influenza A virus, H1N1 strain A/WSN/1933) (UniProt P15682); assay: SEC-MALLS

Influenza A nucleoprotein (strain A/WSN/1933, H1N1) (from UniProt P15682 1-498) (natural protein)
stoichiometry N [1]: 3
stoichiometry N [2]: 3
